Laboratory results from the supplement of paper PMC10724198.
± gives the standard deviation of the averaged measurements.

What follows are sequences tested on Saccharomyces cerevisiae (assay: protein stability index of tFT-peptide fusion (C-terminal peptide) (PSI (0-1 scale)); higher = more stable (slower turnover)). Conditions: genetic background: das1 deletion; temperature: 30 C.
Protocol: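 MPS profiling in S. cerevisiae of the yeast C-terminome library: the last 12 aa of each annotated ORF are fused to the C-terminus of a sfGFP-mCherry timer, after a GGGS linker. Cells are FACS-sorted into 8 mCherry/sfGFP bins and deep-sequenced. PSI runs from 0 (unstable) to 1 (stable); wild type and das1Δ backgrounds, two technical replicates each.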

Sequence	protein stability index
CLILSCSWWILN [YJR020W C-terminal 12 aa]	0.292 ± 0.0085
CLSDIAKVLRNQ [PBP4 C-terminal 12 aa]	0.661 ± 0.0092
CPLCRSEIPFRR [RKR1 C-terminal 12 aa]	0.75 ± 0.028
CRESNLKLIVSG [ARR2 C-terminal 12 aa]	0.6753 ± 0.002
CSGMKPISELQQ [RSM28 C-terminal 12 aa]	0.695 ± 0.015
CSPVLFSLLNIA [LCB3 C-terminal 12 aa]	0.699 ± 0.012
DAKFMMQASCSS [FMP40 C-terminal 12 aa]	0.6897 ± 0.0051
DASVEQNILAVL [RQT4 C-terminal 12 aa]	0.70427 ± 0.00032
DAVAEEVKKILA [LEU2 C-terminal 12 aa]	0.689 ± 0.018
DCLEGMLELEKL [DSS1 C-terminal 12 aa]	0.698 ± 0.025
DDDNEDVEMSDA [NOC2 C-terminal 12 aa]	0.66818 ± 0.00066
DDEDEEDDDFKE [CHZ1 C-terminal 12 aa]	0.725 ± 0.021
DDYAQYLDQDSD [MAK21 C-terminal 12 aa]	0.7147 ± 0.004
DEDEDDSTTKEP [GLC8 C-terminal 12 aa]	0.679 ± 0.011
DEDLWEEQEVCP [YGR017W C-terminal 12 aa]	0.702 ± 0.0037
DELSLRPATERI [YGR038C-E C-terminal 12 aa]	0.739 ± 0.23
DFNDSSNLKKTR [CLN3 C-terminal 12 aa]	0.7398 ± 0.0057
DGEFVVSDLRLR [YOR283W C-terminal 12 aa]	0.708 ± 0.0071
DGGVKRIRVWGY [DAL2 C-terminal 12 aa]	0.706 ± 0.024
DGVENTPVESQQ [NMD3 C-terminal 12 aa]	0.6821 ± 0.0024
DIFSRFSIILKC [YPR136C C-terminal 12 aa]	0.413 ± 0.017

Sequence	protein stability index
DIRAHLAEYYSF [PAU7 C-terminal 12 aa]	0.728 ± 0.026
DKLGFLDRRRNE [COI1 C-terminal 12 aa]	0.683 ± 0.036
DKRNLLEILDFS [RRT13 C-terminal 12 aa]	0.72 ± 0.021
DKSCIDIRSIIH [YAP5 C-terminal 12 aa]	0.706 ± 0.011
DLEDEIEMEDVV [TFG2 C-terminal 12 aa]	0.699 ± 0.027
DLLNKESEYLNI [FAR11 C-terminal 12 aa]	0.705 ± 0.012
DLRCLKYKYKNA [YGR016W C-terminal 12 aa]	0.695 ± 0.011
DLVAQQVVQDGH [MYO2 C-terminal 12 aa]	0.7005 ± 0.0019
DMMMLFGAEGDE [TAF7 C-terminal 12 aa]	0.72102 ± 0.00011
DNFINSVKLNFR [SEC10 C-terminal 12 aa]	0.6945 ± 0.0052
DPFDTNLSIKLS [YMR075C-A C-terminal 12 aa]	0.696 ± 0.026
DQTRDFGTSMEL [FOB1 C-terminal 12 aa]	0.706 ± 0.0098
DTVLRKFADYKI [MPS1 C-terminal 12 aa]	0.7043 ± 0.0052
DVKLLPPPKKRN [NUC1 C-terminal 12 aa]	0.67982 ± 0.00038
EAASDEHFSRVV [YGL185C C-terminal 12 aa]	0.709 ± 0.02
ECPRFSNKHGRN [YDR169C-A C-terminal 12 aa]	0.701 ± 0.0084
EDDEDGSGVEYD [RTT106 C-terminal 12 aa]	0.694 ± 0.009
EDKDSESFSEVC [YCG1 C-terminal 12 aa]	0.702 ± 0.016
EDNDYELIFMNV [PML1 C-terminal 12 aa]	0.7194 ± 0.0068
EDVDEDTTPFNV [YTP1 C-terminal 12 aa]	0.7138 ± 0.0053
EDVEVPFITIHL [UBA1 C-terminal 12 aa]	0.6884 ± 0.0057

Sequence	protein stability index
EDVKEEESKVGA [IOC4 C-terminal 12 aa]	0.691 ± 0.033
EDYAYWGNRQLY [PER1 C-terminal 12 aa]	0.7133 ± 0.0036
EEDEEDEENEEQ [UBX2 C-terminal 12 aa]	0.716 ± 0.016
EEGPFKADHYRY [SAH1 C-terminal 12 aa]	0.701 ± 0.011
EEQINGKRKRKD [YJR107C-A C-terminal 12 aa]	0.672 ± 0.0096
EFIFRESRKHNV [ERP3 C-terminal 12 aa]	0.728 ± 0.058
EFSTLFDDYKDN [YRR1 C-terminal 12 aa]	0.7429 ± 0.0055
EGEISKGAENAT [YDR444W C-terminal 12 aa]	0.676 ± 0.015
EHKLGNTKYFED [ARP5 C-terminal 12 aa]	0.693 ± 0.01
EILGTDEPTVRT [PGM1 C-terminal 12 aa]	0.693 ± 0.015
EISNRDENSIPE [MUB1 C-terminal 12 aa]	0.7214 ± 0.004
EKAERRKLSQGR [QRI5 C-terminal 12 aa]	0.686 ± 0.02
EKANDIGFHKYR [RPS29B C-terminal 12 aa]	0.6797 ± 0.0058
EKIKKILSELKK [NKP1 C-terminal 12 aa]	0.705 ± 0.022
EKKSKKEKKEKK [NOP58 C-terminal 12 aa]	0.747 ± 0.07
EKLILAKKDQPN [IST3 C-terminal 12 aa]	0.6926 ± 0.0055
EKMLAAPHQNKV [SPR28 C-terminal 12 aa]	0.696 ± 0.015
EKPKKKEVEKTA [NOG2 C-terminal 12 aa]	0.684 ± 0.012
EKWASQFGSSGS [SAP1 C-terminal 12 aa]	0.702 ± 0.024
ELASYILKELNL [KIN2 C-terminal 12 aa]	0.731 ± 0.028
ELKKIILESSMK [EXO5 C-terminal 12 aa]	0.698 ± 0.059

Sequence	protein stability index
ELLYIIDHLSEL [BTS1 C-terminal 12 aa]	0.693 ± 0.023
EMKHSLFRNPFH [PIG2 C-terminal 12 aa]	0.705 ± 0.014
EPLKESIFNQLK [MRPL23 C-terminal 12 aa]	0.694 ± 0.013
EQGGEGVQCASQ [YDJ1 C-terminal 12 aa]	0.686 ± 0.014
ERDNWWVVAQKR [TRM9 C-terminal 12 aa]	0.744 ± 0.023
ERINFVCETYGL [AIM14 C-terminal 12 aa]	0.7 ± 0.018
ERNPSQRPQRRY [RPS10B C-terminal 12 aa]	0.686 ± 0.0083
ERPQDWFEDIGE [FCY1 C-terminal 12 aa]	0.7168 ± 0.0043
ESFEKQGKIIYN [MOB2 C-terminal 12 aa]	0.681 ± 0.0097
ESSKDVKRNNKD [SDH7 C-terminal 12 aa]	0.691 ± 0.012
ETARNLAEYNGE [SEC72 C-terminal 12 aa]	0.701 ± 0.013
ETGHISKDCPKA [GIS2 C-terminal 12 aa]	0.698 ± 0.018
ETNFWTAAMEYE [THI22 C-terminal 12 aa]	0.717 ± 0.011
EVPVNTADRGRL [PMU1 C-terminal 12 aa]	0.701 ± 0.021
EWSSGIPHPEMI [ARA2 C-terminal 12 aa]	0.7305 ± 0.0044
EYEPFVMYIINL [VMA5 C-terminal 12 aa]	0.6058 ± 0.001
EYMIERCRGHVL [YPL108W C-terminal 12 aa]	0.708 ± 0.032
FANKSSSGGDEV [YIL089W C-terminal 12 aa]	0.6849 ± 0.0047
FASPTLSFFFPI [YGL149W C-terminal 12 aa]	0.724 ± 0.013
